Assay [1] deals with T1, GRP78 (soluble / recombinant protein) (UniProt P11021 19-654).
T1 construct: also called GRP78-HRP; HRP-labeled GRP78
Briefly: method not stated.

The target of assay [2] is T1, GRP78 (soluble / recombinant protein).

T1 sequence (P11021 19-654 limits assumed): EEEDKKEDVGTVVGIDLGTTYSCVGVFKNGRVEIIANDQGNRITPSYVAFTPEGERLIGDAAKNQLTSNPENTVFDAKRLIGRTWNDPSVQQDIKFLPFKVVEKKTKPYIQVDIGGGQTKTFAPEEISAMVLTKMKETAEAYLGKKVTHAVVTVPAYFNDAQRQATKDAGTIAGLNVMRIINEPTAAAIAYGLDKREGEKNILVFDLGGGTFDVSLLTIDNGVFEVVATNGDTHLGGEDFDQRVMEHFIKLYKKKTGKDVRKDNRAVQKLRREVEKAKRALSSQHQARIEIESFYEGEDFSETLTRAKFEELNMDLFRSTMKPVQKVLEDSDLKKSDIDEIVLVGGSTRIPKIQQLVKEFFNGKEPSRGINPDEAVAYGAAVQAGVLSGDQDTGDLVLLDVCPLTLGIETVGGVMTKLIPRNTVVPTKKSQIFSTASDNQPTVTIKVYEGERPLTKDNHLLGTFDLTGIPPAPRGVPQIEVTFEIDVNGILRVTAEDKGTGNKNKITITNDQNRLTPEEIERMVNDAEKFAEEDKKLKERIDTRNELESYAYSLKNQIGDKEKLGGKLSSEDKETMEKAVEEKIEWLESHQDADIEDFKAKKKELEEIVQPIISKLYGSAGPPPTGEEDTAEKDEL

B1: K5 (5th kringle domain of human plasminogen) (other)
chain: SEEDCMFGNGKGYRGKRATTVTGTPCQDWAAQEPHRHSIFTPETNPRAGLEKNYCRNPDGDVGGPWCYTTNPRKLYDYCDVPQCAAPKS
notes: also called kringle 5
Regarding B1, the Kd in assay [1] was 0.6 nM. The IC50 in assay [2] was 460 nM.

The values are drawn from patent US20260242447A1 (CREATIVE BIOTHERAPEUTICS, published 2026).
